Assay [1] deals with human OX40 receptor (CD134), full length, on the cell surface (human) (UniProt P43489). The assay can be described thus: cell-based or functional assay.
Assay [2] has as its target T1, murine OX40 (form not stated) (mouse, UniProt P47741 20-211, limits assumed).
T1 sequence (looked up): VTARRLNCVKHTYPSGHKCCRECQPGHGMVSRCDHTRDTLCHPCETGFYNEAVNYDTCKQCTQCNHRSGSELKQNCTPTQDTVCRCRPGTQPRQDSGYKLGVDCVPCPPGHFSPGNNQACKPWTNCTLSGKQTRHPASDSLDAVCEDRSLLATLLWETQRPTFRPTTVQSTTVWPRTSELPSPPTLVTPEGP
The assay is described as follows: not described (observation cited in Example 8).

Assay [3] deals with T2, human OX40 (form used in the assay not stated) (human, UniProt P43489 29-214, limits assumed).
T2 sequence (looked up): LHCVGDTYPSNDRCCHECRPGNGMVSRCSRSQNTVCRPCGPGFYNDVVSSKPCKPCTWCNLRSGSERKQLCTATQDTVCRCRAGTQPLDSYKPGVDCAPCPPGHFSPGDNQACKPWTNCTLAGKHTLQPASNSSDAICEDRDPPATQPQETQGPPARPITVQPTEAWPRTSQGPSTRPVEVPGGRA
The assay can be described thus: OX40 binding titration with OD readout (assay format and form of OX40 not described); x axis 'Log concentration, µg/ml Fab'.

The target of assay [4] is T2, human OX40 (form used in the assay not …). The assay is described as follows: Biacore, format not described.

Numbering of substitutions follows the chain as printed.

As usually defined, the EC50 (read off the curve) is the concentration giving half of the maximal effect. A higher EC50 (read off the curve) goes with a less potent agent. For orientation: Kd means the free concentration of one partner at which half of the binding sites on the other are occupied at equilibrium, for simple one-to-one binding. A word on the koff: it is the rate constant with which the complex falls apart. A lower koff goes with a long-lived complex. The kon is a measure of how fast the partners come together. A low value points to slower complex formation.

On to “OX40 ligand (OX40L) on transfected mouse L fibroblasts”, for which, in assay [1], the CMP Mean (n: 3), proliferation, Th17 cells + OX40L L-cells is 66000 CPM; the IFN-γ Conc (pg/ml), Th1 cells + OX40L L-cells turned out to be 33000 pg/mL; the IL2 (pg/ml), OX40-Hut-78 + OX40L-L-cells, no antibody was found to be 138 pg/mL; the IL13 (pg/ml), OX40-Hut-78 + OX40L-L-cells, no antibody came out at 620 pg/mL. In assay [1], the IL-17 Conc (pg/ml), TH-17, CD4+ cells/OX40L L-cells came out at 2260 pg/mL; the Survivin expression (%), Th17 cells + OX40L L-cells amounted to 49%; the TH17 Survival (%), Th17 + OX40L-L-cells was 39.2%; the Th1 Survival (%), naïve CD4+ T-cells + OX40L L-cells was determined as 65.9%. Moreover, in assay [1], the Th17 proliferation, fold against culture without OX40L costimulation was found to be 4 fold and the Th-17 Survival (%), Th17 cells + OX40L L-cells worked out at 84.3%.

B1: humanized anti-OX40 antibody A10(TH)hu336F (antibody, V domains shown)
VH: QVQLVQSGAEVKKPGASVKVSCKASGYTFTSYWMHWVRQAPGQGLEWMGEIHPKSGNSNYNEKFKGRVTMTRDTSTSTVYMELSSLRSEDTAVYYCARGPEYSNFWFAYWGQGTLVTVSS
VL: DIVLTQSPTSLAVSLGQRATISCKASQTVDYDGDSYMHWYQQKPGQPPKLLIYAASNLESGVPDRFSGSGSGTDFTLTISSLQAEDVAVYYCHQSNEDPWTFGQGTKVEIK
notes: also called humanized clone A10(TH)hu336F; 'humanized' A10 molecule
B1: in assay [2], the binding result is recorded as “no binding”. In addition, the “EC50 (read off the curve)” value in assay [3] is ~9 ng/mL.

B2: humanized A10 whole antibody F (A10 LC (TH) hu 336 / A10 humanized) (antibody, V domains shown)
VH: B1 VH
VL: B1 VL
notes: also called A10-F; humanized variant A10-F
In assay [4], B2 showed a Kd of 1.12 nM, an off-rate constant (koff) of 0.000158 s⁻¹ and a kon of 141000 M⁻¹ s⁻¹.

B3: humanized A10 whole antibody A (A10 LC (SH) / A10 L70) (antibody, V domains shown)
VH: B1 VH with M70L
VL: B1 VL with L4M, T9D, Q17E, S22N, T28S
Consider B3, for which, in assay [4], binding was characterised by a dissociation constant (Kd) of 1.38 nM, the koff turned out to be 0.000179 s⁻¹ and the kon came to 131000 M⁻¹ s⁻¹.

B4: humanized A10 whole antibody B (A10 LC (SN) / A10 L70) (antibody, V domains shown)
VH: B1 VH with M70L
VL: B1 VL with L4M, T9D, Q17E, S22N, T28S, H38N
For B4, in assay [4], the Kd stood at 0.94 nM, the koff was found to be 0.000156 s⁻¹ and the kon was determined as 170000 M⁻¹ s⁻¹.

B5: humanized A10 whole antibody C (A10 LC (TH) hu 336 / A10 L70) (antibody, V domains shown)
VH: B1 VH with M70L
VL: B1 VL with L4M, T9D, Q17E, S22N
Take B5: in assay [4], the Kd amounted to 1.44 nM, the koff stood at 0.000151 s⁻¹ and the kon was 116000 M⁻¹ s⁻¹.

B6: humanized A10 whole antibody E (A10 LC (SN) / A10 humanized) (antibody, V domains shown)
VH: B1 VH
VL: B1 VL with L4M, T9D, Q17E, S22N, T28S, H38N
Regarding B6, in assay [4], the Kd is 1.25 nM, the koff was 0.000191 s⁻¹ and the kon came to 151000 M⁻¹ s⁻¹.

B7: humanized A10 whole antibody D (A10 LC (SH) / A10 humanized) (antibody, V domains shown)
VH: B1 VH
VL: B1 VL with L4M, T9D, Q17E, S22N, T28S
notes: also called A10-D; A10 D
In the case of B7, in assay [4], the Kd was 1.21 nM, the koff is 0.00017 s⁻¹ and the kon was found to be 140000 M⁻¹ s⁻¹.

For the origin of these results see patent US20100136030A1 (published 2010).
